Reference: US10941182 (Amgen, dated 2021)
Values belong to the binder of their own block, whether it stands above or below them. Starred links: 1 amine or outer side, 2 acyl side, 3 side chain; linkers in the order of their positions; H or OH if unused. Non-standard residues stand in square brackets, D forms with d. *: point of attachment. dBip = N[C@H](Cc1ccc(-c2ccccc2)cc1)C(=O)O; Oic = O=C(O)[C@@H]1C[C@@H]2CCCC[C@@H]2N1; Phe(4-Cl) = N[C@@H](Cc1ccc(Cl)cc1)C(=O)O; Phe(4-I) = N[C@@H](Cc1ccc(I)cc1)C(=O)O; γGlu = O=C(O)[C@H](CCC(=O)[*:2])N[*:1]; Tridecanoyl = CCCCCCCCCCCCC(=O)*; hArg = N=C(N)NCCCC[C@H](N)C(=O)O; Cha = N[C@@H](CC1CCCCC1)C(=O)O; NMeL = CN[C@@H](CC(C)C)C(=O)O; Nle = CCCC[C@H](N)C(=O)O; AEEA = NCCOCCOCC(=O)O

Key:
[1] = biological target: T1, human APJ receptor (human, UniProt P35414 1-380); test: cell-based or functional assay
T1 sequence (looked up): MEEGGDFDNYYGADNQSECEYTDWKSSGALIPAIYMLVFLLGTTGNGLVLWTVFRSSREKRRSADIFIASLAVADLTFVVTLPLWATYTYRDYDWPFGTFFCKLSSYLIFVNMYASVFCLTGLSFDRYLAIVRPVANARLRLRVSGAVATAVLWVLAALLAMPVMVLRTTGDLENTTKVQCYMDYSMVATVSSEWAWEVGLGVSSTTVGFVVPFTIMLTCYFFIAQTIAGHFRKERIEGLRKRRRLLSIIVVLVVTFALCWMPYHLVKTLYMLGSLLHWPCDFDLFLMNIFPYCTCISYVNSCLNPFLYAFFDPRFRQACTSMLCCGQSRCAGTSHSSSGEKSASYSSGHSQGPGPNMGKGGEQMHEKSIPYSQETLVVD

[2] = biological target: T2, rat APJ receptor (rat, UniProt Q9JHG3 1-377); test: cell-based or functional assay
T2 sequence (looked up): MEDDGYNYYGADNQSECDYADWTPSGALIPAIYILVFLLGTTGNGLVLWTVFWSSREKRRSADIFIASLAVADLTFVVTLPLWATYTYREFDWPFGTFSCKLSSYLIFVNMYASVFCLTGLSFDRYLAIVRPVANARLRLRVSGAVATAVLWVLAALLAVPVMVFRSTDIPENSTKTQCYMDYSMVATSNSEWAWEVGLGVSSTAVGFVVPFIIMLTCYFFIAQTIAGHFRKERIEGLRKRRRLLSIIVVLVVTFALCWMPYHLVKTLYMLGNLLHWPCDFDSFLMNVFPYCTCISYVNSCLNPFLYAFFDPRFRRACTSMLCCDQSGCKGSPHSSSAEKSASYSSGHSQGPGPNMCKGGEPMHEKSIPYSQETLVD

EC50 Human APJ Receptor [1]: 10.1 nM
EC50 Rat APJ Receptor [2]: 45 nM
B1: apelin polypeptide SEQ ID NO: 219 (peptide)
peptide: Tridecanoyl-[γGlu][AEEA][AEEA][dR]Q[hArg]P[dR][NMeL]SHKG[Oic][Phe(4-I)]P[Phe(4-Cl)]-OH
SMILES: CCCCCCCCCCCCC(=O)N[C@@H](CCC(=O)NCCOCCOCC(=O)NCCOCCOCC(=O)N[C@H](CCCNC(=N)N)C(=O)N[C@@H](CCC(N)=O)C(=O)N[C@@H](CCCCNC(=N)N)C(=O)N1CCC[C@H]1C(=O)N[C@H](CCCNC(=N)N)C(=O)N(C)[C@@H](CC(C)C)C(=O)N[C@@H](CO)C(=O)N[C@@H](Cc1c[nH]cn1)C(=O)N[C@@H](CCCCN)C(=O)NCC(=O)N1[C@H](C(=O)N[C@@H](Cc2ccc(I)cc2)C(=O)N2CCC[C@H]2C(=O)N[C@@H](Cc2ccc(Cl)cc2)C(=O)O)C[C@@H]2CCCC[C@@H]21)C(=O)O

EC50 Human APJ Receptor [1]: 10.8 nM
EC50 Rat APJ Receptor [2]: 22.5 nM
B2: apelin polypeptide SEQ ID NO: 216 (peptide)
peptide: Tridecanoyl-[γGlu][AEEA][AEEA]RQRP[dR][Cha]SHKG[Oic][Phe(4-I)]P[dBip]-OH
SMILES: CCCCCCCCCCCCC(=O)N[C@@H](CCC(=O)NCCOCCOCC(=O)NCCOCCOCC(=O)N[C@@H](CCCNC(=N)N)C(=O)N[C@@H](CCC(N)=O)C(=O)N[C@@H](CCCNC(=N)N)C(=O)N1CCC[C@H]1C(=O)N[C@H](CCCNC(=N)N)C(=O)N[C@@H](CC1CCCCC1)C(=O)N[C@@H](CO)C(=O)N[C@@H](Cc1c[nH]cn1)C(=O)N[C@@H](CCCCN)C(=O)NCC(=O)N1[C@H](C(=O)N[C@@H](Cc2ccc(I)cc2)C(=O)N2CCC[C@H]2C(=O)N[C@H](Cc2ccc(-c3ccccc3)cc2)C(=O)O)C[C@@H]2CCCC[C@@H]21)C(=O)O

EC50 Human APJ Receptor [1]: 0.196 nM
EC50 Rat APJ Receptor [2]: 1.93 nM
B3: apelin polypeptide SEQ ID NO: 221 (peptide)
peptide: Tridecanoyl-[γGlu][AEEA][AEEA][dR]Q[hArg]P[dR][Cha]SHKG[Oic][Nle]P[Phe(4-Cl)]-OH
SMILES: CCCCCCCCCCCCC(=O)N[C@@H](CCC(=O)NCCOCCOCC(=O)NCCOCCOCC(=O)N[C@H](CCCNC(=N)N)C(=O)N[C@@H](CCC(N)=O)C(=O)N[C@@H](CCCCNC(=N)N)C(=O)N1CCC[C@H]1C(=O)N[C@H](CCCNC(=N)N)C(=O)N[C@@H](CC1CCCCC1)C(=O)N[C@@H](CO)C(=O)N[C@@H](Cc1c[nH]cn1)C(=O)N[C@@H](CCCCN)C(=O)NCC(=O)N1[C@H](C(=O)N[C@@H](CCCC)C(=O)N2CCC[C@H]2C(=O)N[C@@H](Cc2ccc(Cl)cc2)C(=O)O)C[C@@H]2CCCC[C@@H]21)C(=O)O

EC50 Human APJ Receptor [1]: 1.23 nM
EC50 Rat APJ Receptor [2]: 6.87 nM
B4: apelin polypeptide SEQ ID NO: 222 (peptide)
peptide: Tridecanoyl-[γGlu][AEEA][AEEA]QRP[hArg][NMeL]SHKG[Oic][Phe(4-I)]P[dBip]-OH
SMILES: CCCCCCCCCCCCC(=O)N[C@@H](CCC(=O)NCCOCCOCC(=O)NCCOCCOCC(=O)N[C@@H](CCC(N)=O)C(=O)N[C@@H](CCCNC(=N)N)C(=O)N1CCC[C@H]1C(=O)N[C@@H](CCCCNC(=N)N)C(=O)N(C)[C@@H](CC(C)C)C(=O)N[C@@H](CO)C(=O)N[C@@H](Cc1c[nH]cn1)C(=O)N[C@@H](CCCCN)C(=O)NCC(=O)N1[C@H](C(=O)N[C@@H](Cc2ccc(I)cc2)C(=O)N2CCC[C@H]2C(=O)N[C@H](Cc2ccc(-c3ccccc3)cc2)C(=O)O)C[C@@H]2CCCC[C@@H]21)C(=O)O

EC50 Human APJ Receptor [1]: 0.841 nM
EC50 Rat APJ Receptor [2]: 14.9 nM
B5: apelin polypeptide SEQ ID NO: 218 (peptide)
peptide: Tridecanoyl-[γGlu][AEEA][AEEA][dR]Q[hArg]P[dR][NMeL]SHKG[Oic][Nle]P[Phe(4-Cl)]-OH
SMILES: CCCCCCCCCCCCC(=O)N[C@@H](CCC(=O)NCCOCCOCC(=O)NCCOCCOCC(=O)N[C@H](CCCNC(=N)N)C(=O)N[C@@H](CCC(N)=O)C(=O)N[C@@H](CCCCNC(=N)N)C(=O)N1CCC[C@H]1C(=O)N[C@H](CCCNC(=N)N)C(=O)N(C)[C@@H](CC(C)C)C(=O)N[C@@H](CO)C(=O)N[C@@H](Cc1c[nH]cn1)C(=O)N[C@@H](CCCCN)C(=O)NCC(=O)N1[C@H](C(=O)N[C@@H](CCCC)C(=O)N2CCC[C@H]2C(=O)N[C@@H](Cc2ccc(Cl)cc2)C(=O)O)C[C@@H]2CCCC[C@@H]21)C(=O)O

EC50 Human APJ Receptor [1]: 0.647 nM
EC50 Rat APJ Receptor [2]: 1.17 nM
B6: apelin polypeptide SEQ ID NO: 213 (peptide)
peptide: Tridecanoyl-[γGlu][AEEA][AEEA][dR]QRP[hArg][NMeL]SHKG[Oic][Phe(4-I)]P[dBip]-OH
SMILES: CCCCCCCCCCCCC(=O)N[C@@H](CCC(=O)NCCOCCOCC(=O)NCCOCCOCC(=O)N[C@H](CCCNC(=N)N)C(=O)N[C@@H](CCC(N)=O)C(=O)N[C@@H](CCCNC(=N)N)C(=O)N1CCC[C@H]1C(=O)N[C@@H](CCCCNC(=N)N)C(=O)N(C)[C@@H](CC(C)C)C(=O)N[C@@H](CO)C(=O)N[C@@H](Cc1c[nH]cn1)C(=O)N[C@@H](CCCCN)C(=O)NCC(=O)N1[C@H](C(=O)N[C@@H](Cc2ccc(I)cc2)C(=O)N2CCC[C@H]2C(=O)N[C@H](Cc2ccc(-c3ccccc3)cc2)C(=O)O)C[C@@H]2CCCC[C@@H]21)C(=O)O

EC50 Human APJ Receptor [1]: 0.171 nM
EC50 Rat APJ Receptor [2]: 1.59 nM
B7: apelin polypeptide SEQ ID NO: 17 (peptide)
peptide: Ac-RQRP[hArg][Cha]SHKG[Oic][Nle]P[Phe(4-Cl)]-OH
SMILES: CCCC[C@H](NC(=O)[C@@H]1C[C@@H]2CCCC[C@@H]2N1C(=O)CNC(=O)[C@H](CCCCN)NC(=O)[C@H](Cc1c[nH]cn1)NC(=O)[C@H](CO)NC(=O)[C@H](CC1CCCCC1)NC(=O)[C@H](CCCCNC(=N)N)NC(=O)[C@@H]1CCCN1C(=O)[C@H](CCCNC(=N)N)NC(=O)[C@H](CCC(N)=O)NC(=O)[C@H](CCCNC(=N)N)NC(C)=O)C(=O)N1CCC[C@H]1C(=O)N[C@@H](Cc1ccc(Cl)cc1)C(=O)O

EC50 Human APJ Receptor [1]: 2.72 nM
EC50 Rat APJ Receptor [2]: 27.6 nM
B8: apelin polypeptide SEQ ID NO: 220 (peptide)
peptide: Tridecanoyl-[γGlu][AEEA][AEEA][dR]Q[hArg]P[dR][NMeL]SHKG[Oic][Nle]P[dBip]-OH
SMILES: CCCCCCCCCCCCC(=O)N[C@@H](CCC(=O)NCCOCCOCC(=O)NCCOCCOCC(=O)N[C@H](CCCNC(=N)N)C(=O)N[C@@H](CCC(N)=O)C(=O)N[C@@H](CCCCNC(=N)N)C(=O)N1CCC[C@H]1C(=O)N[C@H](CCCNC(=N)N)C(=O)N(C)[C@@H](CC(C)C)C(=O)N[C@@H](CO)C(=O)N[C@@H](Cc1c[nH]cn1)C(=O)N[C@@H](CCCCN)C(=O)NCC(=O)N1[C@H](C(=O)N[C@@H](CCCC)C(=O)N2CCC[C@H]2C(=O)N[C@H](Cc2ccc(-c3ccccc3)cc2)C(=O)O)C[C@@H]2CCCC[C@@H]21)C(=O)O

EC50 Human APJ Receptor [1]: 4.67 nM
EC50 Rat APJ Receptor [2]: 8.83 nM
B9: apelin polypeptide SEQ ID NO: 217 (peptide)
peptide: Tridecanoyl-[γGlu][AEEA][AEEA][dR]QRP[hArg][Cha]SHKG[Oic][Phe(4-I)]P[dBip]-OH
SMILES: CCCCCCCCCCCCC(=O)N[C@@H](CCC(=O)NCCOCCOCC(=O)NCCOCCOCC(=O)N[C@H](CCCNC(=N)N)C(=O)N[C@@H](CCC(N)=O)C(=O)N[C@@H](CCCNC(=N)N)C(=O)N1CCC[C@H]1C(=O)N[C@@H](CCCCNC(=N)N)C(=O)N[C@@H](CC1CCCCC1)C(=O)N[C@@H](CO)C(=O)N[C@@H](Cc1c[nH]cn1)C(=O)N[C@@H](CCCCN)C(=O)NCC(=O)N1[C@H](C(=O)N[C@@H](Cc2ccc(I)cc2)C(=O)N2CCC[C@H]2C(=O)N[C@H](Cc2ccc(-c3ccccc3)cc2)C(=O)O)C[C@@H]2CCCC[C@@H]21)C(=O)O

EC50 Human APJ Receptor [1]: 8.42 nM
EC50 Rat APJ Receptor [2]: 21.4 nM
B10: apelin polypeptide SEQ ID NO: 215 (peptide)
peptide: Tridecanoyl-[γGlu][AEEA][AEEA][dR]QRP[dR][Cha]SHKG[Oic][Phe(4-I)]P[dBip]-OH
SMILES: CCCCCCCCCCCCC(=O)N[C@@H](CCC(=O)NCCOCCOCC(=O)NCCOCCOCC(=O)N[C@H](CCCNC(=N)N)C(=O)N[C@@H](CCC(N)=O)C(=O)N[C@@H](CCCNC(=N)N)C(=O)N1CCC[C@H]1C(=O)N[C@H](CCCNC(=N)N)C(=O)N[C@@H](CC1CCCCC1)C(=O)N[C@@H](CO)C(=O)N[C@@H](Cc1c[nH]cn1)C(=O)N[C@@H](CCCCN)C(=O)NCC(=O)N1[C@H](C(=O)N[C@@H](Cc2ccc(I)cc2)C(=O)N2CCC[C@H]2C(=O)N[C@H](Cc2ccc(-c3ccccc3)cc2)C(=O)O)C[C@@H]2CCCC[C@@H]21)C(=O)O

EC50 Human APJ Receptor [1]: 2.92 nM
EC50 Rat APJ Receptor [2]: 5.81 nM
B11: apelin polypeptide SEQ ID NO: 214 (peptide)
peptide: Tridecanoyl-[γGlu][AEEA][AEEA]RQRP[hArg][Cha]SHKG[Oic][Phe(4-I)]P[dBip]-OH
SMILES: CCCCCCCCCCCCC(=O)N[C@@H](CCC(=O)NCCOCCOCC(=O)NCCOCCOCC(=O)N[C@@H](CCCNC(=N)N)C(=O)N[C@@H](CCC(N)=O)C(=O)N[C@@H](CCCNC(=N)N)C(=O)N1CCC[C@H]1C(=O)N[C@@H](CCCCNC(=N)N)C(=O)N[C@@H](CC1CCCCC1)C(=O)N[C@@H](CO)C(=O)N[C@@H](Cc1c[nH]cn1)C(=O)N[C@@H](CCCCN)C(=O)NCC(=O)N1[C@H](C(=O)N[C@@H](Cc2ccc(I)cc2)C(=O)N2CCC[C@H]2C(=O)N[C@H](Cc2ccc(-c3ccccc3)cc2)C(=O)O)C[C@@H]2CCCC[C@@H]21)C(=O)O
